Data as given in patent US8263350B2, “Molecular affinity clamp technology and uses thereof” (The University of Chicago, priority 2009, dated 2012).
Each block holds one molecule with its values, some of them ahead of it. Ends that are not written are not given here.

Assays:
ePDZ-b2 = assay: SPR binding of the new tag peptide to ePDZ-b2; details: FIG. 9, SPR, ePDZ-b2 immobilized
Description: The affinity clamps were immobilized and the target peptides in the form of yeast SUMO fusion protein were used as the analytes. (a) Sensorgrams for the interaction of the wild-type ARVCF peptide and ePDZ-b2. Data with 0, 10, 20, 40, 80 and 160 nM peptide are shown in black, and calculated curves from the global fittings of the 1:1 Langmuir binding model are in orange. The estimated dissociation constant is indicated. The peptide sequence is also shown. (b) Sensorgrams for the interaction of the new tag peptide to ePDZ-b2. Data with 0, 10, 20, 40 and 80 nM target are shown.
(§1) Affinity Measurements. SPR measurements were performed in 20 mM HEPES/NaOH buffer (pH 7.4), 150 mM NaCl, and 0.005% Tween 20 at 25° C. on a BIAcore 2000 instrument. The affinity clamp or the linker mutant was immobilized on a Ni-NTA chip to the level of approximate 300 RU, and different concentrations of SUMO-peptide fusion protein were injected. The kinetic data were analyzed using the one-to-one binding model in BIAEvaluation (BIAcore). For weak interactions (Kd>5 μM), Kd values were determined from the saturation curve of the maximum RU values.

δ-catenin peptide = biological target: T1, δ-catenin peptide (Homo sapiens, UniProt Q9UQB3); assay: SPR affinity measurement of affinity clamps with the δ-catenin peptide; assay type: binding
T1 construct: His tag (N, cleaved yes); made in house; host or cells: E. coli BL21(DE3)
Description: (§2) Protein Expression and Purification. All proteins used in this study were expressed using derivatives of the pHFT2 expression vector in E. coli BL21(DE3) cells. Protein expression was induced with 500 μM IPTG for three to five hours at 25° C. Proteins were purified with Ni affinity chromatography following standard protocols. When necessary, a second step of purification with Sephacryl S-100 column in PBS (50 mM sodium phosphate containing 150 mM NaCl, pH 7.4) was performed to ensure that proteins were monomeric. For protein crystallization and SPR experiments, the N-terminal His tag was cleaved with TEV protease and the cleaved protein was purified using Ni affinity chromatography.
as §1

[1] = tested on: ARVCF peptide (alanine substituted); assay: Ala-scanning of the ARVCF peptide with SPR affinity measurements; assay type: binding; details: substitution at each of the four positions −7 to −4 of the ARVCF peptide
Text: Alanine-scanning mutagenesis analysis. Although the phage-display library approach is powerful in determining general trends in sequence specificity, large-scale sequencing is necessary for quantitatively characterizing protein-interaction energetics (Skelton et al., 2003; Sidhu and Koide, 2007). This requirement is acute particularly when there is a strong amino acid preference and thus recovered clones are dominated by a particular pattern, as in our case above. Accordingly, to complement the library sorting experiments described above, the inventors performed Ala-scanning experiments of the ARVCF peptide coupled with affinity measurements using SPR. Because the goal was to understand the differences in target recognition of the affinity clamps, and because the sequence specificity of the C-terminal four residues is predominantly defined by the specificity of the parent PDZ domain, the inventors analyzed only those positions that differed between the ARVCF and δ-catenin peptides.
(§3) Site-directed mutagenesis. Mutant forms of the SUMO-ARVCF peptide fusion protein and linker mutants of affinity clamps were constructed using Kunkel mutagenesis.
Affinity Measurements. […] The kinetic data were analyzed using the one-to-one binding model in BIAEvaluation (BIAcore). […]

ARVCF peptide = biological target: T2, ARVCF peptide (Homo sapiens, UniProt O00192); assay: SPR affinity measurement of affinity clamps with the ARVCF peptide; assay type: binding; details: 25° C.
T2 construct: His tag (N, cleaved yes); made in house; host or cells: E. coli BL21(DE3)
Description: as §2, §3, §1

affinity compared with the original (ARVCF) peptide (ePDZ-b2): higher affinity
dissociation rate compared with the original (ARVCF) peptide (ePDZ-b2): much slower
Molecule: RGSIDTWV-COOH (RGSIDTWV-OH) [used in SPR as yeast SUMO fusion]

discrimination between ARVCF peptide and δ-catenin peptide (δ-catenin peptide): almost equally
Kd (δ-catenin peptide; SPR, 25° C.): 6.3 µM
Specificity Index (δ-catenin peptide; ratio of the Kd for δ-catenin to the Kd for ARVCF): 3
decrease in binding (ΔΔG) on alanine substitution [1]: only small effects
Kd (ARVCF peptide): 2.2 µM
B1: Erbin PDZ: wild-type Erbin PDZ domain, the parent capture domain of the affinity clamps (protein)
chain: EIRVRVEKDPELGFSISGGVGGRGNPFRPDDDGIFVTRVQPEGPASKLLQPGDKIIQANGYSFINIEHGQAVSLLKTFQNTVELIIVREV
